# Experimental data published in patent US20050085420A1, “Method of modulating apoptosis and compositions thereof” (priority 2003, published 2005).
# T1: N-terminal HA-tagged VDAC2 (murine, UniProt Q60930 1-295)
# T1 construct: also called HA-VDAC2; hemagglutinin (HA)-tagged version of VDAC2; not shown: N-terminal HA tag
# T1 sequence (looked up): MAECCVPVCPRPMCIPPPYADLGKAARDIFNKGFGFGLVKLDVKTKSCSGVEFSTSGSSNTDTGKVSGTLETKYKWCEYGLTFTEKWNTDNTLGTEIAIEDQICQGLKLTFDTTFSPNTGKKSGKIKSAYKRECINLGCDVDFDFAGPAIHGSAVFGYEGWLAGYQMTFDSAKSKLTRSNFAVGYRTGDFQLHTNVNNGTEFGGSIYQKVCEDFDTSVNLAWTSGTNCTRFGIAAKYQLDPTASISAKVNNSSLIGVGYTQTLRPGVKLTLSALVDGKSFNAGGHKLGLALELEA
# B1: mutant tBID mIII.4 (G94E) (other, UniProt P70444 60-195, looked up)
# chain: GSQASRSFNQGRIEPDSESQEEIIHNIARHLAQIEDEMDHNIQPTLVRQLAAQFMNGSLSEEDKRNCLAKALDEVKTAFPRDMENDKAMLIMTMLLAKKVASHAPSLLRDVFHTTVNFINQNLFSYVRNLVRNEMD
# notes: domain: p15 tBID; also called m111.4 mutant; m l 11.4
# Target: T1, N-terminal HA-tagged VDAC2
# Experiment: anti-HA immunoprecipitation in 1% CHAPS, anti-BID immunoblot
# Description: The activated form of BID, p15 tBID, was first examined in cells expressing only VDAC2 and not the other isoforms, VDAC1 or VDAC3. Mitochondria isolated from vdac1 -/- , vdac3 -/- mouse fibroblasts with or without retroviral transduction of N-terminal HA-tagged VDAC2 were incubated with in vitro transcribed, translated wild-type or mutant tBID (mIII.4, G94E) protein at 30° C. for 30 min, followed by anti-HA immunoprecipitation in 1% CHAPS buffer.
binder,measurement,value
B1,binding result,no binding
